Substitutions are numbered along the chain they refer to. Names and notes keep the numbering of the source.
What was measured:
[1] = target: T1, IL-2 ("IL-2 proteins" coated on the ELISA plate) (UniProt P60568 21-153, limits assumed); experiment: ELISA, IL-2 coated, Fc-mask fusion titrated, pH 6.4
Protocol: (§1) 10 μg/ml of IL-2 proteins in PBS were seeded to the 96-well plate at 100 μl/well and coated at 4 degree for overnight. The wells were washed by PBS three times and blocked with 100 μl 2% milk/PBS for 1 hr. Then the wells were washed three times by PBS and 100 μl protein samples with 3-fold serial dilution were added to the wells for 1 hr incubation at room temperature. After three times of PBS washing, 100 μl of HRP conjugated anti-IgG antibody were added and incubated at RT for 1 hr. Subsequently, the wells were washed again by PBS for 3 times, detection reagents were added and OD450 nm were measured.
(§2) In order to discover improved versions of the IL-2 antagonist or mask with higher folds of activations upon protease cleavage, a number of mutations in the IL-2Rβ extracellular domain were constructed.

[2] = target: T1, IL-2 ("IL-2 proteins" coated on the …); experiment: ELISA, IL-2 coated, Fc-mask fusion titrated, pH 7.4
Protocol: as §1, §2

[3] = target: T1, IL-2 ("IL-2 proteins" coated on the …); experiment: ELISA, IL-2 coated, pH 6.4; reference understood as wild type (SEQ ID NO: 195)
Protocol: as §1, §2

[4] = target: T1, IL-2 ("IL-2 proteins" coated on the …); experiment: ELISA, IL-2 coated, pH 7.4
Protocol: as §1, §2

[5] = target: T1, IL-2 ("IL-2 proteins" coated on the …); experiment: ELISA, IL-2 coated, pH 7.4 and pH 6.4; reference understood as wild type (SEQ ID NO: 195)
Protocol: as §1, §2

[6] = target: T1, IL-2 ("IL-2 proteins" coated on the …); experiment: ELISA, IL-2 coated, pH 6.4; reference wild type
Protocol: as §1, §2

T1 sequence (P60568 21-153 limits assumed): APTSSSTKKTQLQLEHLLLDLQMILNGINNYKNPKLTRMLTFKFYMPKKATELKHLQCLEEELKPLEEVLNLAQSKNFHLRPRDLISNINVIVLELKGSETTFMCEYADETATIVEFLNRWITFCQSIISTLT

B1: Fc with LALA and hole mutation (L234A-L235A-Y407T) with beta subunit (SEQ ID NO: 195), expressed as homodimer (Fc fusion)
chain: DKTHTCPPCPAPEAAGGPSVFLFPPKPKDTLMISRTPEVTCVVVDVSHEDPEVKFNWYVDGVEVHNAKTKPREEQYNSTYRVVSVLTVLHQDWLNGKEYKCKVSNKALPAPIEKTISKAKGQPREPQVYTLPPSREEMTKNQVSLTCLVKGFYPSDIAVEWESNGQPENNYKTTPPVLDSDGSFFLTSKLTVDKSRWQQGNVFSCSVMHEALHNHYTQKSLSLSPGKGGGGSGGGGSGGGGSLSGRSDNHGGGGSAVNGTSQFTCFYNSRANISCVWSQDGALQDTSCQVHAWPDRRRWNQTCELLPVSQASWACNLILGAPDSQKLTTVDIVTLRVLCREGVRWRVMAIQDFKPFENLRLMAPISLQVVHVETHRCNISWEISQASHYFERHLEFEARTLSPGHTWEEAPLLTLKQKQEWICLETLTPDTQYEFQVRVKPLQGEFTTWSPWSQPLAFRTKPAALGKDT
notes: also called WT
Kd [1]: 269 µg/mL
Kd [2]: 219 µg/mL

B2: Fc with LALA and hole mutation (L234A-L235A-Y407T) fused with beta subunit containing mutation (E136Q) (SEQ ID NO: 204), homodimer (Fc fusion)
chain: DKTHTCPPCPAPEAAGGPSVFLFPPKPKDTLMISRTPEVTCVVVDVSHEDPEVKFNWYVDGVEVHNAKTKPREEQYNSTYRVVSVLTVLHQDWLNGKEYKCKVSNKALPAPIEKTISKAKGQPREPQVYTLPPSREEMTKNQVSLTCLVKGFYPSDIAVEWESNGQPENNYKTTPPVLDSDGSFFLTSKLTVDKSRWQQGNVFSCSVMHEALHNHYTQKSLSLSPGKGGGGSGGGGSGGGGISSGLLSSGGSGGSLSGRSDNHGGGGSAVNGTSQFTCFYNSRANISCVWSQDGALQDTSCQVHAWPDRRRWNQTCELLPVSQASWACNLILGAPDSQKLTTVDIVTLRVLCREGVRWRVMAIQDFKPFENLRLMAPISLQVVHVETHRCNISWEISQASHYFQRHLEFEARTLSPGHTWEEAPLLTLKQKQEWICLETLTPDTQYEFQVRVKPLQGEFTTWSPWSQPLAFRTKPAALGKDT
Kd [1]: 128 µg/mL
fold better binding affinity at pH 6.4 [3]: 2 fold

B3: Fc with LALA and hole mutation (L234A-L235A-Y407T) fused with beta subunit containing mutation R15Y (SEQ ID NO: 199), homodimer (Fc fusion)
chain: B2 chain with R283Y, Q404E
binding result [4]: no binding

B4: Fc with LALA and hole mutation (L234A-L235A-Y407T) fused with beta subunit containing mutation (V75Q) (SEQ ID NO: 202), homodimer (Fc fusion)
chain: B2 chain with V343Q, Q404E
binding result [4]: no binding

B5: Fc with LALA and hole mutation (L234A-L235A-Y407T) fused with beta subunit containing mutation (V75F) (SEQ ID NO: 203), homodimer (Fc fusion)
chain: B2 chain with V343F, Q404E
binding result [4]: no binding

B6: Fc with LALA and hole mutation (L234A-L235A-Y407T) fused with beta subunit containing mutation (D68E) (SEQ ID NO: 200), homodimer (Fc fusion)
chain: B2 chain with D336E, Q404E
Kd [1]: 118 µg/mL
fold increase of binding affinity at pH 7.4 and pH 6.4 [5]: 2 fold
Kd [2]: 124 µg/mL

B7: Fc-mask fusion with beta subunit containing mutation (E136Q/H138R) (SEQ ID NO: 205), homodimer (Fc fusion)
chain: B2 chain with H406R
Kd [1]: 105 µg/mL
fold enhancement of binding affinity at pH 6.4 against wild type [6]: 2 fold
Kd [2]: 269 µg/mL

B8: Fc with LALA and hole mutation (L234A-L235A-Y407T) fused with beta subunit containing mutation (S69H) (SEQ ID NO: 201), homodimer (Fc fusion)
chain: B2 chain with S337H, Q404E
Kd [1]: 187 µg/mL
fold better binding affinity at pH 6.4 [3]: 2 fold

Reference: patent US20210260163A1 (ASKGENE PHARMA, published 2021)
